Results: patent US7422862B2, “Methods for identifying modulators of apoptosis” (The Burnham Institute, priority 2001, dated 2008)

Key:
[1] = biological target: T1, Bok (Homo sapiens, UniProt Q9UMX3); assay: Co-immunoprecipitation with Bcl-2 family proteins in HEK293T cells; assay type: binding
T1 construct: expressed in transfected cells; host or cells: HEK293T
T1 sequence (Q9UMX3 1-212): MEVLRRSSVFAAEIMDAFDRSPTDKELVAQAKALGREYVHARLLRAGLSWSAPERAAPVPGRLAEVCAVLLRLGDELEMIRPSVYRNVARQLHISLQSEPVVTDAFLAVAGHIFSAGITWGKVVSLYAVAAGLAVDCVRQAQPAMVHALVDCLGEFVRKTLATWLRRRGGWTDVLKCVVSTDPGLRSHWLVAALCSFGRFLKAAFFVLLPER
Text: (§1) (A) HEK293T cells were transfected with pcDNA3-myc plasmids encoding Bax or other Bcl-2 family proteins with GFP, GFP-HN, or GFP-HN(C8P). Cell lysates were immunoprecipitated with polyclonal anti-GFP antibody. The immunoprecipitates or the lysates were blotted with anti-myc or anti-GFP antibodies, respectively. The slower migrating form of GFP seen in lane 1 (asterisk)represents an alternative form of GFP produced from the wild-type (control) p-EGFP-Cl plasmid (http://clonotech.com). (B) Testes of three-week-old mice were homogenized in lysis buffer (0.1% Triton X-100, 50 mM Tris-HCl, pH7.5, 1 mM EDTA, plus protease inhibitor cocktail). The lysates were immunoprecipitated with control rabbit serum or polyclonal anti-mouse Bax antibody. The immunoprecipitates or the lysates were subjected to electrophoresis in Tris/Tricine gels (16% T, 3% C), electroblotted to PVDF membrane, and immunoblotted with polyclonal anti-HN antibody or monoclonal anti-Bax antibody 6A7 (Trevigen). (C) The affinity (Kd) of Bax/HN interaction was measured by fluorescence polarization assay, using various concentrations of purified recombinant Bax and 40 nM rhodamine-conjugated HN peptide. Control peptide from CD40 is also shown (mean +Std Dev; n=3).
(§2) Furthermore, multiple Bcl-2 family proteins were surveyed for interactions with Humanin by coimmunoprecipitation experiments (FIG. 5A).
(§3) Immunoblotting and immunoprecipitations were performed as follows. Immunoblotting was performed as described previously (Fields and Song, Nature 340:245-246 (1989)). For co-immunoprecipitations, cells were cultured in 50 uM […] Valine Alanine Asparate fluoromethyl-ketone (zVAD-fmk) to prevent apoptosis. Cells were suspended in lysis buffer (50 mM Tris-HCl, pH7.4; 150 mM NaCl; 20 mM EDTA; 50 mM NaF; 0.5% NP-40; 0.1 mM Na3VO4; 20 ug/ml Leupeptin; 20 ug/ml Aprotinin; 1 mM DTT; and 1 mM PMSF). Lysates (200 ul diluted in 1 ml final volume of lysis buffer) were cleared by incubation with 15 ul of protein G-Sepharose 4B (Zymed) and then incubated with 15 ul of polyclonal antibody and 15 ul of protein G at 4° C. overnight. Beads were then washed 4 times with 1.5 mls lysis buffer before boiling in Laemmli sample buffer and performing SDS-PAGE/immunoblotting.

[2] = biological target: Bcl-2 (Homo sapiens, UniProt P10415); assay: as above; assay type: binding
Text: as §1, §2, §3

[3] = biological target: T2, Bak (Homo sapiens, UniProt Q16611); assay: Bak-induced apoptosis in transfected cells; assay type: cell-based; design: expressed in transfected cells; conditions: CSM14.1 or PC-3 cells, transient co-transfection
T2 sequence (Q16611 1-211): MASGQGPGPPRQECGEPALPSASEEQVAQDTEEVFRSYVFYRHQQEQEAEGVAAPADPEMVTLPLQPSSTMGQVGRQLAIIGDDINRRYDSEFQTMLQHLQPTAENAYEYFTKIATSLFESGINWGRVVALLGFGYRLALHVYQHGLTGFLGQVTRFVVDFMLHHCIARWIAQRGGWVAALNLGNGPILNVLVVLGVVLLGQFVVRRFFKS
Protocol: (A-D) CMS14.1 neuronal cells were transfected with plasmids encoding Flag-HN peptide or Flag-control (27-amino-acid) peptide, together with GFP-encoding plasmid at 4:1 ratio. Cells were either cultured without further treatment (open bars) or subjected to various apoptotic stimuli for various times (dark bars), including (A) STS for 8 h (dark symbols=Flag-control; open symbols=Flag-HN), (B) Serum-deprivation for 72 h, (C) 10 joules/m2 Uvirradiation followed by 24 h culture, and (D) 50 ng/ml TNFa in […] for 24 h. Cells were then fixed and stained with DAPI to determine the percentage of apoptotic cells, evaluating=200 GFP-positive cells per sample (mean±SD; n=3). (inset) Lysates prepared from replicate cultures of transfected cells were normalized for total protein content and analyzed by immunoblotting using anti-Flag (top) and anti-tubulin (bottom) antibodies, confirming production of similar amounts of Flag-control and Flag-HN peptides. […] (Upper panel) After 72 hr, cell lysates were prepared and 100 ug was analyzed by immunoblotting using anti-HN and anti-tubulin (as a loading control) antibodies. (Lower panel) At 72 hr after siRNA transfection, SF268 cells were cultured with 0.1 μM STS for 8 hrs, then % apoptosis was determined (mean+std dev; n=3). […] Apoptosis (%) was measured 48 hrs later among GFP-positive cells. […]

Bcl-2, sequence (P10415 whole entry, species assumed): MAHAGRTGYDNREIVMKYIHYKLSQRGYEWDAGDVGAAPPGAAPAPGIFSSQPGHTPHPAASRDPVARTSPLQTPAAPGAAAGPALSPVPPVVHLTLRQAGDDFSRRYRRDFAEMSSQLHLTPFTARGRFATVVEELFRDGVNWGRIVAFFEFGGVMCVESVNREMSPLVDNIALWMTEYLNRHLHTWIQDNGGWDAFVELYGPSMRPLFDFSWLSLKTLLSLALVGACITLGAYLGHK

GFP-HN: Wild-type full-length Humanin fused to Green Fluorescent Protein
co-immunoprecipitation with Bok [1]: did not co-immunoprecipitate | co-immunoprecipitation with Bcl-2 [2]: did not co-immunoprecipitate | Bak-induced apoptosis [3]: not affected
